{"source": "patent US20140315800A1", "about": "(published 2014)", "binders": {"B1": {"name": "3C(disialo)-R-K-SRIF14 (peptide)", "peptide": "CCCRKAGCKNFFWKTFTSC", "modifications": "three N-terminal Cys each with a disialo sugar chain (Cys-Cys-Cys-Arg-Lys- added to SRIF14); disulfide Cys17-Cys28 (SRIF28 numbering)"}, "B2": {"name": "S1-3C(asialo)-SRIF28 (peptide)", "peptide": "CCCANSNPAMAPRERKAGCKNFFWKTFTSC", "modifications": "Ser 1 replaced by three consecutive Cys each with an asialo sugar chain; disulfide Cys17-Cys28 (SRIF28 numbering)"}, "B3": {"name": "S1-5C(disialo)-SRIF28 (peptide)", "peptide": "CCCCCANSNPAMAPRERKAGCKNFFWKTFTSC", "modifications": "Ser 1 replaced by five consecutive Cys each with a disialo sugar chain; disulfide Cys17-Cys28 (SRIF28 numbering)"}, "B4": {"name": "C(disialo)-SRIF14 (peptide)", "peptide": "CAGCKNFFWKTFTSC", "modifications": "disialo sugar chain on Cys added at the N-terminus of SRIF14; disulfide Cys17-Cys28 (SRIF28 numbering)"}}, "key": {"SSTR1 [1]": {"molecular_target": "T1, SSTR1 (Human, UniProt P30872 1-391)", "T1 sequence (P30872 whole entry)": "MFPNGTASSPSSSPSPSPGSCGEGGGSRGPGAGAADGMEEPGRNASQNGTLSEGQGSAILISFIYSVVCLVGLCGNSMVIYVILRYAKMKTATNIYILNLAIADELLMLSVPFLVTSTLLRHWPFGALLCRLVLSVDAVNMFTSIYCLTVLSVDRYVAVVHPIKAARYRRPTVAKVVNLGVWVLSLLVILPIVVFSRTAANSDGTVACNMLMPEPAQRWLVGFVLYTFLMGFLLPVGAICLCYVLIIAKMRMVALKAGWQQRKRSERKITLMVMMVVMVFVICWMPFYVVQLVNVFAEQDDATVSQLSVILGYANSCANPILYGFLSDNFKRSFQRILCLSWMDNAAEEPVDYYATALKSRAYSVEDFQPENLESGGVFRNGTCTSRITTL", "test": "radioligand competition, membranes"}, "SSTR4 [2]": {"molecular_target": "T2, SSTR4 (Human, UniProt P31391 1-388)", "T2 sequence (P31391 whole entry)": "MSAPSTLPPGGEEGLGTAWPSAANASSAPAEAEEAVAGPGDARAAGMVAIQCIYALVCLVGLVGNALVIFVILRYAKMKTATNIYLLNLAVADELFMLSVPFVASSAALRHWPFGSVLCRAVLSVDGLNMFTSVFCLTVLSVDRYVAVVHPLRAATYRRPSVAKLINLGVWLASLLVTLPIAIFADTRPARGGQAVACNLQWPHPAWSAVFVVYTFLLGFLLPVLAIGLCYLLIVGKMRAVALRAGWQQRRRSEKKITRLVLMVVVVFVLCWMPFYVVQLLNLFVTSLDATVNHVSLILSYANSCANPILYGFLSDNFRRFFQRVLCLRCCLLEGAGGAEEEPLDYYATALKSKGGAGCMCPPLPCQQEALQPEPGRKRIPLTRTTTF", "test": "cell-based or functional assay"}, "SSTR3 [3]": {"molecular_target": "T3, SSTR3 (Human, UniProt P32745 1-418)", "T3 sequence (P32745 whole entry)": "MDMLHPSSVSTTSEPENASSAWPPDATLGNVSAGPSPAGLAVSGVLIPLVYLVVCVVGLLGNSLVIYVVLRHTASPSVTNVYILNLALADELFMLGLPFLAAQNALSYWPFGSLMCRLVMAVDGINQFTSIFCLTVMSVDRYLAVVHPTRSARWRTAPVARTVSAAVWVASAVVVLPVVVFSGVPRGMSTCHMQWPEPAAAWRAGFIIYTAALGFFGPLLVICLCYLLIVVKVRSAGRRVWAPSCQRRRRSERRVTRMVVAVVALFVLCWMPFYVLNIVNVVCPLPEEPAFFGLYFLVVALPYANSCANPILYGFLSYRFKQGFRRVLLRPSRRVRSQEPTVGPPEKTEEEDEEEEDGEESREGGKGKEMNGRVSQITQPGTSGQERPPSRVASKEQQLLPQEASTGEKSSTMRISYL", "test": "radioligand competition, membranes"}, "SSTR5": {"molecular_target": "SSTR5 (Human, UniProt P35346 1-364)", "sequence (P35346 whole entry)": "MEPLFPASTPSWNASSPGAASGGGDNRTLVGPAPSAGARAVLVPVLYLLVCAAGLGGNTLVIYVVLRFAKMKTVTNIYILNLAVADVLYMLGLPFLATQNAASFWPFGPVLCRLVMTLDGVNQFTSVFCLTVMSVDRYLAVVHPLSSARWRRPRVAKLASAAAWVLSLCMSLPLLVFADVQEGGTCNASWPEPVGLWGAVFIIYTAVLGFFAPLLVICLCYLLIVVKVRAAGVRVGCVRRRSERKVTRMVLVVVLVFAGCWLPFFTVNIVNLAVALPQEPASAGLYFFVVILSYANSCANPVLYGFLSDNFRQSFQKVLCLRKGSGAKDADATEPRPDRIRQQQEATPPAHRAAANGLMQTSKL", "test": "radioligand competition, membranes"}, "SSTR1-SSTR5": {"molecular_target": "SSTR1-SSTR5", "test": "radioligand competition, membranes"}, "SSTR2": {"molecular_target": "SSTR2 (Human, UniProt P30874 1-369)", "sequence (P30874 whole entry)": "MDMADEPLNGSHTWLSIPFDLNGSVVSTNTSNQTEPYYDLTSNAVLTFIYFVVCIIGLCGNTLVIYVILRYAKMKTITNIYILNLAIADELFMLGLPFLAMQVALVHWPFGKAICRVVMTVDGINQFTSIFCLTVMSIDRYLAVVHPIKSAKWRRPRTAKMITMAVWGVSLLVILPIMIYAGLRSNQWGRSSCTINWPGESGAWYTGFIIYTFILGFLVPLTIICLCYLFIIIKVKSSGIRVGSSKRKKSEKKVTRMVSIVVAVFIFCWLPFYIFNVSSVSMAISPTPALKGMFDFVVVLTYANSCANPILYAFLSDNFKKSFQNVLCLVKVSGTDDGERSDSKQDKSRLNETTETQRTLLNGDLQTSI", "test": "cell-based or functional assay"}, "SSTR3 [4]": {"molecular_target": "T3, SSTR3", "test": "cell-based or functional assay"}, "SSTR1 [5]": {"molecular_target": "T1, SSTR1", "test": "cell-based or functional assay"}, "SSTR4 [6]": {"molecular_target": "T2, SSTR4", "test": "cell-based or functional assay", "remark": "listed apart in the source"}}, "note": "Positions of bridges follow the written chain, without caps; N, C: chain ends. No end group written: not given here. *: point of attachment. βGlcNAc = CC(=O)N[C@@H]1[C@@H](O)[C@H](O)[C@@H](CO)O[C@H]1*; diGlcNAc = diGlcNAc sugar chain; disialo = disialo sugar chain; GlcNAc = N-acetylglucosamine", "data": [{"binder": "B1", "values": [{"measurement": "Ki", "setting": "SSTR1 [1]", "value": 270, "unit": "nM"}]}, {"binder": "C(diGlcNAc)ANSNPAMAPRERKAGCKNFFWKTFTSC (disulfide 17-28)", "note": "[S1C(diGlcNAc)-SRIF28]", "values": [{"measurement": "IC50 of agonist activity (cAMP)", "setting": "SSTR4 [2]", "value": 0.05, "unit": "nM"}]}, {"binder": "B2", "values": [{"measurement": "IC50 of agonist activity (cAMP)", "setting": "SSTR4 [2]", "value": 0.1, "unit": "nM"}]}, {"binder": "SANSC(disialo)PAMC(disialo)PRERKAGCKNFFWKTFTSC (disulfide 17-28)", "note": "[N5C(disialo)•A9C(disialo)-SRIF28]", "values": [{"measurement": "binding result", "setting": "SSTR3 [3]", "value": "binds"}]}, {"binder": "SANSNPAMAPRERKAGCKNFFWKTFC(disialo sugar chain)SC (disulfide 17-28)", "note": "[T26C(disialo)-SRIF28]", "values": [{"measurement": "IC50", "setting": "SSTR5", "value": 400, "unit": "nM"}]}, {"binder": "C(disialo sugar chain)ANSC(disialo sugar chain)PAMAPRERKAGCKNFFWKTFTSC (disulfide 17-28)", "note": "[S1C(disialo)•N5C(disialo)-SRIF28]", "values": [{"measurement": "ratio of Ki to the Ki of unglycosylated SRIF14", "setting": "SSTR1-SSTR5", "value": 15.7}]}, {"binder": "C(disialo)ANSNPAMAPRERKAGCKC(GlcNAc)FFWKTFTSC (disulfide 17-28)", "note": "[S1C(disialo)•N19C(GlcNAc)-SRIF28]", "values": [{"measurement": "IC50 of agonist activity (cAMP)", "setting": "SSTR2", "value": 0.08, "unit": "nM"}]}, {"binder": "C(disialo)KAGCKNFFWKTFTSC (disulfide 5-16)", "note": "[C(disialo)-K-SRIF14]", "values": [{"measurement": "IC50 of agonist activity (cAMP)", "setting": "SSTR3 [4]", "value": 0.1, "unit": "nM"}]}, {"binder": "C(disialo)C(disialo)C(disialo)C(disialo)C(disialo)C(disialo)C(disialo)C(disialo)C(disialo)C(disialo)ANSNPAMAPRERKAGCKNFFWKTFTSC (disulfide 26-37)", "note": "[S1-10C(disialo)-SRIF28]", "values": [{"measurement": "IC50", "setting": "SSTR5", "value": 34.8, "unit": "nM"}]}, {"binder": "B3", "values": [{"measurement": "IC50 of agonist activity (cAMP)", "setting": "SSTR1 [5]", "value": 18, "unit": "nM"}, {"measurement": "IC50 of agonist activity (cAMP)", "setting": "SSTR2", "value": 0.81, "unit": "nM"}, {"measurement": "IC50 of agonist activity (cAMP)", "setting": "SSTR3 [4]", "value": 2, "unit": "nM"}, {"measurement": "IC50 of agonist activity (cAMP)", "setting": "SSTR4 [2]", "value": 0.27, "unit": "nM"}]}, {"binder": "C(disialo)RKAGCKNFFWKTFTSC (disulfide 6-17)", "note": "[C(disialo)-R-K-SRIF14]", "values": [{"measurement": "IC50 of cAMP production suppression (agonist activity)", "setting": "SSTR4 [6]", "value": 0.05, "unit": "nM"}]}, {"binder": "B4", "values": [{"measurement": "IC50 of agonist activity (cAMP)", "setting": "SSTR4 [2]", "value": 0.1, "unit": "nM"}]}, {"binder": "C(βGlcNAc)ANSNPAMAPRERKAGCKNFFWKTFTSC (disulfide 17-28)", "note": "[S1C(GlcNAc)-SRIF28]", "values": [{"measurement": "IC50 of agonist activity (cAMP)", "setting": "SSTR2", "value": 0.04, "unit": "nM"}]}]}
